Test results: IntAct's records for PubMed 28533415

B1: Nucleus-vacuole junction protein 1 (Saccharomyces cerevisiae), P38881 (parent)
chain: MTRPPLVRGIFSLGLSVAVLKGVEKTVRKHLERQGWIEPQKVDYELIFTIDRLKNLVDNKREALTAEQPDAGELSWRKVFNFISRQSSELDTRIYVLILLLSFLLPIAWTVLDGDRETTLEDKDNDCNVDLIENERRLKHYNDGERAVLQFGKNRSEPIILSYKDMNVLEGEHEFTSKEEHSNSHLTSKSENALNQVGSEDLLGCHLEKQLEEDKNEPNGEADGEDDNNREKDCSSSSEVESQSKCRKESTAEPDSLSRDTRTTSSLKSSTSFPISFKGSIDLKSLNQPSSLLHIQVSPTKSSNLDAQVNTEQAYSQPFRY
partner: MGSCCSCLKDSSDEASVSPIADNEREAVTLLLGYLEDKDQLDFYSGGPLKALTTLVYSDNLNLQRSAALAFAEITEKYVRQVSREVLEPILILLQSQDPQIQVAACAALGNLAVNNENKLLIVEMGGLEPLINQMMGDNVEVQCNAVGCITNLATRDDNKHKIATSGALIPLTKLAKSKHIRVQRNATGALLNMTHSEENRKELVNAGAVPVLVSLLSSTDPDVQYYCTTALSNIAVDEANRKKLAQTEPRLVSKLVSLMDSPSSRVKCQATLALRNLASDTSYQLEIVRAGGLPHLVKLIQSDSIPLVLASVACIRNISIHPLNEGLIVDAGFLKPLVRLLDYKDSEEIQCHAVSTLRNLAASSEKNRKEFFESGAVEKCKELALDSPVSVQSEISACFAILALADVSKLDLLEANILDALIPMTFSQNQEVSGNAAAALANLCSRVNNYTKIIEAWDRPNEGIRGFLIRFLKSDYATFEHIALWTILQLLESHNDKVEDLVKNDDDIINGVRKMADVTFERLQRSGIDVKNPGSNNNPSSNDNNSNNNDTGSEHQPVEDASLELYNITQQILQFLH
B2: Vacuolar protein 8 (Saccharomyces cerevisiae), P39968 (parent)
chain: B1 partner
partner: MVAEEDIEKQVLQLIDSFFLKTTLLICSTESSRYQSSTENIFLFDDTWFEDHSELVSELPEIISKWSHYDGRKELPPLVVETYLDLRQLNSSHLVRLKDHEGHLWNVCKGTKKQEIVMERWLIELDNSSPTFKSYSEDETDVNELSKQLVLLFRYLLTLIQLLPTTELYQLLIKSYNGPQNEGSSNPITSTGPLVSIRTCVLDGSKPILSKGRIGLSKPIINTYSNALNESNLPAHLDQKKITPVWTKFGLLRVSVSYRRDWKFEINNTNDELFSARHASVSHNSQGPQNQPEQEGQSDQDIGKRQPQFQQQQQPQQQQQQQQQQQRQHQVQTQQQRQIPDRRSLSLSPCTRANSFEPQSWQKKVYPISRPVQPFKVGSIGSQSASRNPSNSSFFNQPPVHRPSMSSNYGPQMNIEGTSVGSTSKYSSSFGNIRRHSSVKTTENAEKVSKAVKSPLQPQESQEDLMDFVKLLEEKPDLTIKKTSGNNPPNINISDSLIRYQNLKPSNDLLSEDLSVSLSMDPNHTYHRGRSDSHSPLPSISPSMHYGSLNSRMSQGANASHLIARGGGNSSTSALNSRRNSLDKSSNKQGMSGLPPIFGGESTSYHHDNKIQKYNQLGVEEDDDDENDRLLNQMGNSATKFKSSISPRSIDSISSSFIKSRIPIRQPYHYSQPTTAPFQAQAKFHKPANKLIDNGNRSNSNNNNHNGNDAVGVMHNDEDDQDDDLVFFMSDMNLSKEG
B3: Vacuolar protein 8 (Saccharomyces cerevisiae), P39968 (parent)
chain: B1 partner
partner: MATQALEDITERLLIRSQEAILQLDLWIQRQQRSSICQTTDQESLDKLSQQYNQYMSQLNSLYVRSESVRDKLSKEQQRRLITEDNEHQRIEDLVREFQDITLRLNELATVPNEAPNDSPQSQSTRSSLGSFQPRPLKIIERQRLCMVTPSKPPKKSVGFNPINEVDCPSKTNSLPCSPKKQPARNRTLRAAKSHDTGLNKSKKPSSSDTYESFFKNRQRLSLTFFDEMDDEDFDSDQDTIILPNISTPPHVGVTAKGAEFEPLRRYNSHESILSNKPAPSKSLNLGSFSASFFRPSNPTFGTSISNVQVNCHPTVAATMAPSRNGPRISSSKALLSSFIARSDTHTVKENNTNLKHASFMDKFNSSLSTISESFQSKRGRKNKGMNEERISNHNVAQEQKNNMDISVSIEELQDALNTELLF

Variants of: B1
Details: with vac8_yeast VAC8, P39968

Variant | effect of a mutation on the interaction
MTRPPLVRGIFSLGLSVAVLKGVEKTVRKHLERQGWIEPQKVDYELIFTIDRLKNLVDNKREALTAEQPDAGELSWRKVFNFISRQSSELDTRIYVLILLLSFLLPIAWTVLDGDRETTLEDKDNDCNVDLIENERRLKHYNDGERAVLQFGKNRSEPIILSYKDMNVLEGEHEFTSKEEHSNSHLTSKSENALNQVGSEDLLGCHLEKQLEEDKNEPNGEADGEDDNNREKDCSSSSEVESQSKCRKESTAEPDSLSRDTRTTSSLKSSTSFPISFKGSIDLKSLNQPSSLLHIQVSPTESSNLDAQVNTEQAYSQPFRY [K301E] | decreasing interaction strength
MTRPPLVRGIFSLGLSVAVLKGVEKTVRKHLERQGWIEPQKVDYELIFTIDRLKNLVDNKREALTAEQPDAGELSWRKVFNFISRQSSELDTRIYVLILLLSFLLPIAWTVLDGDRETTLEDKDNDCNVDLIENERRLKHYNDGERAVLQFGKNRSEPIILSYKDMNVLEGEHEFTSKEEHSNSHLTSKSENALNQVGSEDLLGCHLEKQLEEDKNEPNGEADGEDDNNREKDCSSSSEVESQSKCRKESTAEPDSLSRDTRTTSSLKSSTSFPISFKGSIDLKSLNQPSSLLHIQVSSTKSSNLDAQVNTEQAYSQPFRY [P299S] | with no effect

Now from value to variant:

effect of a mutation on the interaction | Variant
with no effect | MTRPPLVRGIFSLGLSVAVLKGVEKTVRKHLERQGWIEPQKVDYELIFTIDRLKNLVDNKREALTAEQPDAGELSWRKVFNFISRQSSELDTRIYVLILLLSFLLPIAWTVLDGDRETTLEDKDNDCNVDLIENERRLKHYNDGERAVLQFGKNRSEPIILSYKDMNVLEGEHEFTSKEEHSNSHLTSKSENALNQVGSEDLLGCHLEKQLEEDKNEPNGEADGEDDNNREKDCSSSSEVESQSKCRKESTAEPDSLSRDTRTTSSLKSSTSFPISFKGSIDLKSLNQPSSLLHIQVSPTKSANLDAQVNTEQAYSQPFRY [S303A]
disrupting interaction strength | MTRPPLVRGIFSLGLSVAVLKGVEKTVRKHLERQGWIEPQKVDYELIFTIDRLKNLVDNKREALTAEQPDAGELSWRKVFNFISRQSSELDTRIYVLILLLSFLLPIAWTVLDGDRETTLEDKDNDCNVDLIENERRLKHYNDGERAVLQFGKNRSEPIILSYKDMNVLEGEHEFTSKEEHSNSHLTSKSENALNQVGSEDLLGCHLEKQLEEDKNEPNGEADGEDDNNREKDCSSSSEVESQSKCRKESTAEPDSLSRDTRTTSSLKSSTSFPISFKGSIDLKSLNQPSSLLHIQVSPTKSSNLDAQVNTEQAYSQPERY [F319E]
decreasing interaction strength | MTRPPLVRGIFSLGLSVAVLKGVEKTVRKHLERQGWIEPQKVDYELIFTIDRLKNLVDNKREALTAEQPDAGELSWRKVFNFISRQSSELDTRIYVLILLLSFLLPIAWTVLDGDRETTLEDKDNDCNVDLIENERRLKHYNDGERAVLQFGKNRSEPIILSYKDMNVLEGEHEFTSKEEHSNSHLTSKSENALNQVGSEDLLGCHLEKQLEEDKNEPNGEADGEDDNNREKDCSSSSEVESQSKCRKESTAEPDSLSRDTRTTSSLKSSTSFPISFKGSIDLKSLNQPSSLLHIQVSPTKSSNLDRQVNTEQAYSQPFRY [A307R]

Variants of: B2
Details: with atg13_yeast ATG13, Q06628

Variant | effect of a mutation on the interaction
MGSCCSCLKDSSDEASVSPIADNEREAVTLLLGYLEDKDQLDFYSGGPLKALTTLVYSDNLNLQRSAALAFAEITEKYVRQVSREVLEPILILLQSQDPQIQVAACAALGNLAVNNENKLLIVEMGGLEPLINQMMGDNVEVQCNAVGCITNLATRDDNKHKIATSGALIPLTKLAKSKHIRVQRNATGALLNMTHSEENRKELVNAGAVPVLVSLLSSTDPDVQYYCTTALSNIAVDEANRKKLAQTEPRLVSKLVSLMDSPSSRVKCQATLALENLASDTSYQLEIVRAGGLPHLVKLIQSDSIPLVLASVACIENISIHPLNEGLIVDAGFLKPLVRLLDYKDSEEIQCHAVSTLENLAASSEKNRKEFFESGAVEKCKELALDSPVSVQSEISACFAILALADVSKLDLLEANILDALIPMTFSQNQEVSGNAAAALANLCSRVNNYTKIIEAWDRPNEGIRGFLIRFLKSDYATFEHIALWTILQLLESHNDKVEDLVKNDDDIINGVRKMADVTFERLQRSGIDVKNPGSNNNPSSNDNNSNNNDTGSEHQPVEDASLELYNITQQILQFLH [R276E;R317E;R359E] | disrupting interaction strength

Variants of: B3
Details: with vac17_yeast VAC17, P25591

Variant | effect of a mutation on the interaction
MGSCCSCLKDSSDEASVSPIADNEREAVTLLLGYLEDKDQLDFYSGGPLKALTTLVYSDNLNLQRSAALAFAEITEKYVRQVSREVLEPILILLQSQDPQIQVAACAALGNLAVNNENKLLIVEMGGLEPLINQMMGDNVEVQCNAVGCITNLATRDDNKHKIATSGALIPLTKLAKSKHIRVQRNATGALLNMTHSEENRKELVNAGAVPVLVSLLSSTDPDVQYYCTTALSNIAVDEANRKKLAQTEPRLVSKLVSLMDSPSSRVKCQATLALENLASDTSYQLEIVRAGGLPHLVKLIQSDSIPLVLASVACIENISIHPLNEGLIVDAGFLKPLVRLLDYKDSEEIQCHAVSTLENLAASSEKNRKEFFESGAVEKCKELALDSPVSVQSEISACFAILALADVSKLDLLEANILDALIPMTFSQNQEVSGNAAAALANLCSRVNNYTKIIEAWDRPNEGIRGFLIRFLKSDYATFEHIALWTILQLLESHNDKVEDLVKNDDDIINGVRKMADVTFERLQRSGIDVKNPGSNNNPSSNDNNSNNNDTGSEHQPVEDASLELYNITQQILQFLH [R276E;R317E;R359E] | with no effect
